In article PMC10167749:

Biological target: recombinant scavenger receptor cysteine-rich domain 1 of Gp340 (salivary agglutinin), expressed in insect cells (UniProt Q9UGM3)
Test: SPR; Biacore T200; iSRCR1 immobilised on a CM5 chip by amine coupling; analyte GtfB-CD 2-8 uM in 20 mM HEPES pH 7.4, 150 mM NaCl, 1 mM CaCl2, 20 ul/min; each concentration in triplicate; kinetic fit with Biacore Insight Evaluation software

Sequence of recombinant scavenger receptor cysteine-rich domain 1 of Gp340 (salivary agglutinin), expressed in insect cells (Q9UGM3 20-2413): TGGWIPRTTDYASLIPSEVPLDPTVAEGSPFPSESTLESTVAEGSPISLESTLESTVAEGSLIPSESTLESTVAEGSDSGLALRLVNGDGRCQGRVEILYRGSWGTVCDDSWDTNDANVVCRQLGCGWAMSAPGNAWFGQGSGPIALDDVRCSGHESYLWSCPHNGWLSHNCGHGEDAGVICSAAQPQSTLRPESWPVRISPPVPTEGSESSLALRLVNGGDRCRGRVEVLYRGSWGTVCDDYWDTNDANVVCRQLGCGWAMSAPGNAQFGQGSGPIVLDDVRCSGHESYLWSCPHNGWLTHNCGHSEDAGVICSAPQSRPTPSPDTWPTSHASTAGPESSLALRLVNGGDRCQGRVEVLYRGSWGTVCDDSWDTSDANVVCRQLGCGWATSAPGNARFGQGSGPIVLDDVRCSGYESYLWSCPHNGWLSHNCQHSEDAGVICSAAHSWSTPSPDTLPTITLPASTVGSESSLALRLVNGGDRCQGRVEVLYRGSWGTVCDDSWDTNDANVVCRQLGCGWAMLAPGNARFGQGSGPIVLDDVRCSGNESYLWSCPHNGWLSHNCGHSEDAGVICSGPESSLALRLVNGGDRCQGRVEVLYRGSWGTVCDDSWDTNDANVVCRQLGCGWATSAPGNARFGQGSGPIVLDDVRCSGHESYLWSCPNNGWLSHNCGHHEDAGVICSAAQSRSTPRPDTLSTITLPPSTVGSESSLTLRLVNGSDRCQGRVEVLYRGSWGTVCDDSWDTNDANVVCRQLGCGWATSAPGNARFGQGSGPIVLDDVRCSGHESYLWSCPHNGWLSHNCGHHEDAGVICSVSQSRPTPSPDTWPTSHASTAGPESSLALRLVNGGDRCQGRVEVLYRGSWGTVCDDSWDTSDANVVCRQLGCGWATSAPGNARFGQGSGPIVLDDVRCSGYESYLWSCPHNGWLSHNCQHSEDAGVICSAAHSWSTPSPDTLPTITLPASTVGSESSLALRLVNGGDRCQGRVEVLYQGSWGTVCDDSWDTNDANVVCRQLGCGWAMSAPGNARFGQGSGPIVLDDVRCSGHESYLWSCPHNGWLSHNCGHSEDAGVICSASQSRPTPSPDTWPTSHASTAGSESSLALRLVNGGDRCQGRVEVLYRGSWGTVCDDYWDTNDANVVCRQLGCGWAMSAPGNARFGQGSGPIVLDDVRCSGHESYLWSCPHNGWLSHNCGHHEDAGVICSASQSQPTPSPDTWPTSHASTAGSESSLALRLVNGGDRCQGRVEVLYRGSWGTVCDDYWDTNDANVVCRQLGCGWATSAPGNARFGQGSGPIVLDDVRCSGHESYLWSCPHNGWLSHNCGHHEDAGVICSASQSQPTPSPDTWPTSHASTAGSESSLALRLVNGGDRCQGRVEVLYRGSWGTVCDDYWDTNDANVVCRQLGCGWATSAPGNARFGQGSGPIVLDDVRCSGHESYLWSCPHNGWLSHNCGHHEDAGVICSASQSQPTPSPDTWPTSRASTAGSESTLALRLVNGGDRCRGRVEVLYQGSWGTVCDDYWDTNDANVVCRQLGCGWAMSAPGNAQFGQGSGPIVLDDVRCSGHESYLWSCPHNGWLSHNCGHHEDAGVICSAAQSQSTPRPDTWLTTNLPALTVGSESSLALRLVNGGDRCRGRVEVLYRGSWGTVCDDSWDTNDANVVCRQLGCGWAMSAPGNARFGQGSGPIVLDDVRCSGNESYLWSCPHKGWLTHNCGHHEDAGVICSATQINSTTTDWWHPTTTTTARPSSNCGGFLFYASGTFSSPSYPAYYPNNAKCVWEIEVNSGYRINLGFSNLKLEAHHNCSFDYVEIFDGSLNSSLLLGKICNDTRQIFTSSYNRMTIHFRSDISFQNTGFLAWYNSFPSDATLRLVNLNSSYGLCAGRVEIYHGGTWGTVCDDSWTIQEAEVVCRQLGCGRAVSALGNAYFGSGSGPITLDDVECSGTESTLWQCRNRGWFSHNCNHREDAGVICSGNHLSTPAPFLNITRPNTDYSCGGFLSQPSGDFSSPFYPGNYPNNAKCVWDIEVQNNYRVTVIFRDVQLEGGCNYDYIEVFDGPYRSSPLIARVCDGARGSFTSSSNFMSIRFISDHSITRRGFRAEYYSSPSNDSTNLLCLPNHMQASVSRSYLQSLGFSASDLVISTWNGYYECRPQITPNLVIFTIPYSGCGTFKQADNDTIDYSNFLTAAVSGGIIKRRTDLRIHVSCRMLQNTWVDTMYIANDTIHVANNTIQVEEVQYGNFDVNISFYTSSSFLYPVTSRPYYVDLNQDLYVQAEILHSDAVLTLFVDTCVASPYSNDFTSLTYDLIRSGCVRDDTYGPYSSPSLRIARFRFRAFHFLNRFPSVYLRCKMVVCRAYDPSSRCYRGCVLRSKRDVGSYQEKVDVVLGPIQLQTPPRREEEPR

B1: catalytic domain of Streptococcus mutans (UA159) glucosyltransferase GtfB, residues 191-1051 (domain or fragment)
chain: LHFDETGAYTDTSIDTVNKDIVTTRSNLYKKYNQVYDRSAQSFEHVDHYLTAESWYRPKYILKDGKTWTQSTEKDFRPLLMTWWPSQETQRQYVNYMNAQLGINKTYDDTSNQLQLNIAAATIQAKIEAKITTLKNTDWLRQTISAFVKTQSAWNSDSEKPFDDHLQNGAVLYDNEGKLTPYANSNYRILNRTPTNQTGKKDPRYTADNTIGGYEFLLANDVDNSNPVVQAEQLNWLHFLMNFGNIYANDPDANFDSIRVDAVDNVDADLLQIAGDYLKAAKGIHKNDKAANDHLSILEAWSDNDTPYLHDDGDNMINMDNKLRLSLLFSLAKPLNQRSGMNPLITNSLVNRTDDNAETAAVPSYSFIRAHDSEVQDLIRDIIKAEINPNVVGYSFTMEEIKKAFEIYNKDLLATEKKYTHYNTALSYALLLTNKSSVPRVYYGDMFTDDGQYMAHKTINYEAIETLLKARIKYVSGGQAMRNQQVGNSEIITSVRYGKGALKATDTGDRTTRTSGVAVIEGNNPSLRLKASDRVVVNMGAAHKNQAYRPLLLTTDNGIKAYHSDQEAAGLVRYTNDRGELIFTAADIKGYANPQVSGYLGVWVPVGAAADQDVRVAASTAPSTDGKSVHQNAALDSRVMFEGFSNFQAFATKKEEYTNVVIAKNVDKFAEWGVTDFEMAPQYVSSTDGSFLDSVIQNGYAFTDRYDLGISKPNKYGTADDLVKAIKALHSKGIKVMADWVPDQMYAFPEKEVVTATRVDKFGKPVEGSQIKSVLYVADSKSSGKDQQAKYGGAFLEELQAKYPELFARKQISTGVPMDPSVKIKQWSAKYFNGTNILGRGAGYVLKDQATNTYFNISDNK
Q: Which results are given for B1?
A: koff: 0.00152 s⁻¹; kon: 2990 M⁻¹ s⁻¹
